Assay results published in US20110144038A1 (FRESENIUS MEDICAL CARE DEUTSCHLAND G M B H, published 2011).
Positions of bridges follow the written chain, without caps; N, C: chain ends. No end group written: not given here.

T1: human CD154 expressed on the cell surface of J558L cells (murine myeloma cell line transfected with human … (human, UniProt P29965 1-261))
T1 construct: whole, on cells; also called CD40L; CD40 ligand
T1 sequence (looked up): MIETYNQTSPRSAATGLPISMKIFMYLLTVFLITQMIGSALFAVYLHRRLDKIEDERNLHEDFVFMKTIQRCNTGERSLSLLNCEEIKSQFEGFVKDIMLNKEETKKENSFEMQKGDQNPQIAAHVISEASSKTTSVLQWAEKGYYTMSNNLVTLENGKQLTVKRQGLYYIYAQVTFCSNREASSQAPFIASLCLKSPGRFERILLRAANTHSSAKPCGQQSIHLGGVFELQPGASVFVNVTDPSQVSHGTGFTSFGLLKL


Target: T1, human CD154 expressed on the cell …
Assay: flow cytometry, -His6 peptide on J558L cells, PE anti-His6 antibody
Description: FIG. 2 represents the binding of the seven peptides obtained from the human CD154-binding clones and tagged with a 6 histidines tail (-His₆) to the J558L CD154⁺ cells. […] The cells were incubated with each of the -His₆-tagged peptides and then with a phycoerythrin-conjugated secondary antibody specific for the-His₆ tail. […] For each experimental condition, 10,000 events were analyzed and the values are the mean and standard deviation of 3 different experiments. All of the peptides are capable of specifically binding to the CD154 on the J558L CD154⁺ cells and are not capable of binding to the control J558 cells.
The peptides were synthesized and conjugated with biotin (-bio) or with a 6-histidine tail (-his₆) so as to enable in vitro and in vivo localization. […] Furthermore, a competition assay between the peptides and an anti-human CD154 fluorescein-conjugated antibody (Serotec) specifically recognizing the active site of CD154 was carried out. The J558L cells were incubated with the his₆-peptides for 30 minutes at room temperature and then with anti-human CD154 fluorescein-conjugated antibody for another 30 minutes at room temperature.

Row | Binder | binding result
1 | CGTHSSRICHHHHHH (disulfide 1-9, Synthetic peptide; also called -his6 peptide) [peptide 4.4 tagged with a 6 histidines tail (-His6)] | binds
2 | CLGTQNKECHHHHHH (disulfide 1-9, Synthetic peptide; also called -his6 peptide) [peptide 4.6 tagged with a 6 histidines tail (-His6)] | binds
3 | CKAASANICHHHHHH (disulfide 1-9, Synthetic peptide; also called -his6 peptide) [peptide 4.8 tagged with a 6 histidines tail (-His6)] | binds
4 | CLSAVHNMCHHHHHH (disulfide 1-9, Synthetic peptide; also called -his6 peptide) [peptide 4.11 tagged with a 6 histidines tail (-His6)] | binds

Now from value to binder:

Row | binding result | Binder
5 | binds | CPSGHTKACHHHHHH (disulfide 1-9, Synthetic peptide; also called -his6 peptide) [peptide 4.2 = 4.3 tagged with a 6 histidines tail (-His6)]
6 | binds | CTPGKPHSCHHHHHH (disulfide 1-9, Synthetic peptide; also called -his6 peptide) [peptide 4.7 = 4.12 tagged with a 6 histidines tail (-His6)]
7 | binds | CLPTRHMACHHHHHH (disulfide 1-9, Synthetic peptide; also called -his6 peptide) [peptide 4.10 tagged with a 6 histidines tail (-His6)]

Target: T1, human CD154 expressed on the cell …
Assay: binding to CD154+ J558L cells

Row | Binder | binding result
8 | CIPTRHMAC [modified peptide 4.101] | no binding
9 | CIPTRHMVC [modified peptide 4.103] | no binding
10 | CLPSRHMAC [modified peptide 4.102] | no binding
11 | CLPTRWMAC [modified peptide 4.104] | no binding

Target: T1, human CD154 expressed on the cell …
Assay: binding to J558L cells
Description: The murine myeloma cells transfected with human CD154, J558L, were incubated with each of the seven anti-CD154 peptides tagged with a 6 histidines tail (-His₆), and then with the anti-CD154 fluorescein-conjugated antibody. The ability of the peptides to compete with the anti-CD154 antibody for the binding to the CD154 molecule expressed on the surface of the J558L cells was evaluated by flow cytometry, as the reduction in the fluorescence intensity compared to the positive control represented by cells incubated with the anti-human CD154 fluorescein-conjugated antibody alone. […] The amino acid sequence of the control peptide differs from that of peptide 4.10 in that an arginine residue is replaced with an alanine residue at amino acid position 5.
The peptides were synthesized and conjugated with biotin (-bio) or with a 6-histidine tail (-his₆) so as to enable in vitro and in vivo localization. […] Furthermore, a competition assay between the peptides and an anti-human CD154 fluorescein-conjugated antibody (Serotec) specifically recognizing the active site of CD154 was carried out.

Row | Binder | binding result
12 | CLPARHMAC (also called mutated peptide (position 4)) [peptide 4.10 with the residue at position 4 replaced with alanine] | no binding
13 | CLPTAHMAC (also called peptide 4.10 with alanine at position 5) [control peptide 4.10-ala] | no binding
14 | CLPTRAMAC (also called mutated peptide (position 6)) [peptide 4.10 with the residue at position 6 replaced with alanine] | no binding
